The record followed here is patent publication US20040259112A1.

pKd: −log10 of the molar value.

Experiment [1] concerns the target human vimentin (full length) (human) (UniProt P08670). Briefly: FACS, indirect immunofluorescence on HL60 cells with 2.5 µg to 40 µg antibody; isotype control subtracted.
Experiment [2] has the same target. Put plainly: quantitative FACS (quantum simply cellular beads) on HL60 cells at saturating antibody (40 µg).
For experiment [3] the target is unchanged. Put plainly: quantitative FACS (quantum simply cellular beads) on MCF-7 cells at saturating antibody (50 µg).
For experiment [4] the target is unchanged. Put plainly: Scatchard analysis, intact cell radioimmunoassay with 125I-labeled antibody on MDA/mito cells; average of 5 determinations.
Experiment [5] shares this target. Put plainly: quantitative FACS (quantum simply cellular beads) on MCF-7/AR cells at saturating antibody (50 µg).
Experiment [6] shares this target. Put plainly: quantitative FACS (quantum simply cellular beads) on HL60/AR cells at saturating antibody (40 µg).
For experiment [7] the target is unchanged. Briefly: Scatchard analysis, intact cell radioimmunoassay with 125I-labeled antibody on MDA cells.
Experiment [8] has the same target. Put plainly: cell-based or functional assay.

Sequence of human vimentin (full length) (human) (P08670 other isoform, or with tags, fused parts or gaps limits assumed): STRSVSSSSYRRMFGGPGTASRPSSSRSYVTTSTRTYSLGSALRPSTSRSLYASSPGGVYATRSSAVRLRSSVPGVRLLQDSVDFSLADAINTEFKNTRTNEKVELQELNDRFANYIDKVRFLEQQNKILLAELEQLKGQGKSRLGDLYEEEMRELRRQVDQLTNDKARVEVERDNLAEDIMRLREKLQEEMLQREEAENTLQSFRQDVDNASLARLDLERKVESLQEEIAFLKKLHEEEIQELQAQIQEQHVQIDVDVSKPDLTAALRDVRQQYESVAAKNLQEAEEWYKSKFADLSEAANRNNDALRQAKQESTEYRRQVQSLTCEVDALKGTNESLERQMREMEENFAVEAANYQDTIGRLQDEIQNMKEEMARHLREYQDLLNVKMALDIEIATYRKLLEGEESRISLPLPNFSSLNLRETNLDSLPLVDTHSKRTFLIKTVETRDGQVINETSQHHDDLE

For “mouse monoclonal anti-vimentin antibody (clone V9, NeoMarker MS-129-P)”, the fluorescence intensity (RFI) in experiment [1] is 0.2 to 0.9 RFI. Also, the antibody molecules bound per cell (molecules of vimentin per cell) (molecules per cell) in experiment [2] stood at 186. This substance also gave an antibody molecules bound per cell (molecules of vimentin per cell) (molecules per cell) in experiment [3] of 14600. Further, the pKd in experiment [4] is 8.24. In experiment [5], this substance displayed an antibody molecules bound per cell (molecules of vimentin per cell) (molecules per cell) of 22000. Moreover, the antibody molecules bound per cell (molecules of vimentin per cell) (molecules per cell) in experiment [6] turned out to be 5050. The pKd in experiment [7] was 8.03. Also, in experiment [8], the % internalization of 125I-labeled antibody, MCF-7/AR cells in suspension (difference between 4 and 37° C.) was found to be 38.2%; the increase in cytotoxicity of 125I-labeled antibody on HL60/AR against HL60 (MTT based assay) worked out at 10%; the percent internalization of vimentin, adherent MCF-7/AR cells (difference between 4 and 37° C.) turned out to be 11.3%; the percent internalization of vimentin, adherent MDA cells (difference between 4 and 37° C.) was determined as 25.3%. Further, in experiment [8], the percent internalization of vimentin, adherent MDA/AR cells (difference between 4 and 37° C.) stood at 24.8%; the percent internalization of vimentin, adherent MDA/mito cells (difference between 4 and 37° C.) was 8.9%.
